Publication PMC6702328, “A VDAC1-Derived N-Terminal Peptide Inhibits Mutant SOD1-VDAC1 Interactions and Toxicity in the SOD1 Model of ALS” (Frontiers in Cellular Neuroscience, 2019)

Tests used:
[1] = target: recombinant full-length murine VDAC1 (murine) (UniProt Q60932)
[2] = target: recombinant full-length murine VDAC1 (murine) (UniProt Q60932); remark: listed apart in the source

recombinant full-length murine VDAC1 (murine), sequence (Q60932 14-296): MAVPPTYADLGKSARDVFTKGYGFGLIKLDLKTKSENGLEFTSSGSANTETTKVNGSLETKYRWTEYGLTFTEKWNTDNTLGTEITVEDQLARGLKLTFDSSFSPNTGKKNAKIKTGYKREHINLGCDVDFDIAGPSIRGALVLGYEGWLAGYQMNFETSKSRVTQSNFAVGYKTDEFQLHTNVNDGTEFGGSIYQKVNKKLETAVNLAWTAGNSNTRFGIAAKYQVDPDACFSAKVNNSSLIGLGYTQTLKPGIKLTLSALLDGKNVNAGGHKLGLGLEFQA

Row | inhibition of channel conductance of bilayer-reconstituted VDAC1 [1] [%] | Substance | survival of mESC-derived SOD1^G93A-expressing motor neurons with the (1-20)-N-Ter-Antp peptide, 10 μM, 96 h [2] [fold]
1 | 40 | human mutant SOD1^G85R (enzyme) | 
2 | 57 | human mutant SOD1^G93A (enzyme) | 2
